Laboratory results from US12662531B2, “CLDN18.2 antibody and use thereof” (FUTUREGEN BIOPHARMACEUTICAL (BEIJING) CO., LTD., priority 2019, dated 2026).

How the values were obtained:
[1] = tested on: SNU601 cells expressing CLDN18.2; experiment: Endocytosis of antibody after binding to SNU601 cells stably expressing CLDN18.2; assay type: cell-based; settings: 10 μg/ml, 4 h
Description: It has been reported that the binding of some antibodies to cell surface antigens can cause endocytosis of antigen and antibody complexes, thereby reducing the expression level of the cell surface antigens and accelerating antibody metabolism in vivo (Schrama D et al., 2006, Nat Rev Drug Discov). In this example, the ability of antibodies 18.2-A1, 18.2-A3, 18.2-A4 and 18.2-A6 to be endocytosed by cells was tested in SNU601 cells stably expressing CLDN18.2. […] Subsequently, they were washed at 4° C. and stained with PE-labeled anti-human IgG antibody. After fixation with 4% formalin, antibody binding on the cell surface was tested by flow cytometry.

[2] = target: T1, CLDN18.2 (CT26-CLDN18.2 cells) (Homo sapiens, UniProt P56856); experiment: Flow cytometry binding of recombinant antibodies to CT26-CLDN18.2 cells; settings: 4° C. 1 hour
T1 construct: expressed in transfected cells; host or cells: CT26 cells (mouse), lentiviral transduction, puromycin selection
Description: Binding activities of the recombinant monoclonal antibodies to CLDN18.2 were determined. Specifically, well-grown cell lines stably expressing CT26-CLDN18.2 were taken. The cells were washed with PBS, mixed with the fold-diluted antibody and incubated at 4° C. for 1 hour. The cells were washed once with flow cytometry buffer, PE-labeled anti-human IgG antibody was added, and incubated at 4° C. for 30 minutes. The supernatant was removed by centrifugation, and after the cells were washed with flow cytometry buffer, the fluorescence intensity on the surface of the cells was tested by flow cytometry. The relative binding activity of each antibody was calculated using the average fluorescence intensity.
The binding activity of the defucosylated antibodies 18.2-A1F, 18.2-A3F and 18.2-A4F to CLDN18.2 as compared to the binding activity of 18.2-A1, 18.2-A3 and 18.2-A4 to CLDN18.2 was tested by flow cytometry, the method of which is as described in Example 5, and the experimental results are shown in FIG. 7.

control CT26 cell line = experiment: Flow cytometry binding to control CT26 cell line; settings: results not shown
[3] = target: T2, CLDN18.2 (CLDN18.2-Flag 293t cells) (Homo sapiens, UniProt P56856); experiment: Binding specificity, 293t cells expressing CLDN18.2-Flag, flow cytometry; settings: 10 μg/ml antibody, 4° C. 1 hour
T2 construct: expressed in transfected cells; host or cells: 293t cells, transient transfection
Text: (§1) Human Claudin18 proteins include two homologues, i.e., CLDN18.1 and CLDN18.2, which share exons other than exon 1, and the exon 1 sequences of CLDN18.1 and CLDN18.2 are highly similar with only 8 different amino acids in the first extracellular region. The exon 1 of CLDN18.1 and the exon 1 of CLDN18.2 are specifically expressed in different tissues driven by different promoters. Among them, CLDN18.1 is specifically expressed in lung epithelial cells, while CLDN18.2 is specifically expressed in gastric epithelial cells. To identify the specificity of the screened CLDN18.2 antibodies, binding of the antibodies to CLDN18.1 and CLDN18.2 was tested.
(§2) Specifically, well-grown 293t cells were taken to transiently express flag-tagged CLDN18.1 (CLDN18.1-Flag) or CLDN18.2 (CLDN18.2-Flag). 48 hours after transfection, the cells were digested with trypsin. After washed with flow cytometry buffer, the cells were mixed with 10 μg/ml of isotype control antibody or one of the above five CLDN18.2 antibodies in 200 μl of flow cytometry buffer, and were incubated at 4° C. for 1 hour. Subsequently, the cells were washed once with flow cytometry buffer, PE-labeled anti-human IgG antibody was added, and incubated at 4° C. for 30 min. The supernatant was removed by centrifugation, wash was performed twice with flow cytometry buffer, and the cells were fixed in a fix solution containing 1% paraformaldehyde and 0.5% triton-X100 and the cell membrane was permeabilized. Subsequently, the cells were incubated with APC-labeled anti-flag antibody for 30 min and tested by flow cytometry.

[4] = target: T3, CLDN18.1 (CLDN18.1-Flag 293t cells) (Homo sapiens, UniProt P56856); experiment: Binding specificity, 293t cells expressing CLDN18.1-Flag, flow cytometry; settings: 10 μg/ml antibody, 4° C. 1 hour
T3 construct: expressed in transfected cells; host or cells: 293t cells, transient transfection
Text: as §1, §2

[5] = tested on: human FcγRIIIa (V158) on FcγRIIIa-Jurkat cells; experiment: Flow cytometry binding to FcγRIIIa-Jurkat cells
Text: We next further tested the binding activity of the CLDN18.2 antibodies and their defucosylated forms to FcγRIIIa expressed on the cell surface. Specifically, the human FcγRIIIa (V158, high FC binding subtype) gene was cloned into a mammalian cell expression vector carrying a puromycin screening marker and transfected into a Jurkat cell line. A cell line stably expressing FcγRIIIa (FcγRIIIa-Jurkat) was screened with puromycin. In addition, NK92MI is a human NK cell line that naturally expresses the FcγRIIIa receptor (F158, low FC binding subtype). The binding ability of the CLDN18.2 antibodies and their defucosylated forms to FcγRIIIa expressed on the surface of FcγRIIIa-jurkat cells and NK92MI cells was tested by flow cytometry. The specific flow cytometry assay is described with reference to Example 6.

[6] = tested on: untransfected Jurkat cells; experiment: Flow cytometry binding to untransfected Jurkat cells; settings: results not shown

Molecule	binding to SNU601 cells expressing CLDN18.2 under 4° C. incubation [1]	antibody staining/binding on the cell surface under 37° C. incubation [1]	binding to CT26 cell line expressing CLDN18.2 [2]	binding to control CT26 cell line (control CT26 cell line)	binding to CLDN18.2-flag transfected positive 293t cells [3]	binding to CLDN18.1-positive cells [4]	endocytosis by cells under 37° C. incubation [1]	binding to FcγRIIIa-jurkat cells [5]	binding to untransfected Jurkat cells [6]
IMAB362: CLDN18.2 specific antibody (IMAB362, Ganymed) [reference compound]	bound well	decreased significantly	–	–	–	–	–	–	–
18.2-A2: recombinant monoclonal CLDN18.2 antibody, VH SEQ ID NO: 11, VL SEQ ID NO: 16 (antibody, V domains shown, 18.2-A2 VH; 18.2-A2 VL) VH: EVQLVQSGAEVKKPGASVKVSCKASGYTFTSFWVGWVRQAPGQGLEWIGNVSPSDSYTNYNQKFKDRATLTVDKSTSTAYMELSSLRSEDTAVYYCTRLSSGNSFDYWGQGTLVTVSS VL: DIVMTQSPDSLSVSLGERATINCKSSQSVLNSGNQKNYLTWYQQKPGQPPKLLIYWSSTKQSGVPDRFSGSGSGTDFTLTISSLQAEDVAVYYCQNAFSFPFTFGQGTKVEIK	–	–	able to bind well	did not bind	able to bind well	none of the six antibodies bound	–	–	–
18.2-A6: recombinant monoclonal CLDN18.2 antibody, VH SEQ ID NO: 55, VL SEQ ID NO: 60 (antibody, V domains shown, 18.2-A6 VH; 18.2-A6 VL) VH: EVQLVQSGAEVKKPGASVKVSCKASGYTFTSYWLGWVRQAPGQGLEWIGIIYPSDSYTNYNQKFKDRATLTVDKSTSTAYMELSSLRSEDTAVYYCTRFWRGNSFDYWGQGTLVTVSS VL: DIVMTQSPDSLTIGLGERATINCKSSQSLLNSGNQKNYLTWYQQKPGQPPKLLIYWAAGKESGVPDRFSGSGSGTDFTLTISSLQAEDVAVYYCQNGYSHPFTFGQGTKVEIK	bound well	still bound well	able to bind well	did not bind	able to bind well	none of the six antibodies bound	did not undergo significant endocytosis	–	–
18.2-A4: recombinant monoclonal CLDN18.2 antibody, VH SEQ ID NO: 31, VL SEQ ID NO: 36 (antibody, V domains shown, 18.2-A4 VH; 18.2-A4 VL) VH: EVQLVQSGAEVKKPGASVKVSCKASGYTFTSFWISWVRQAPGQGLEWIGNILPSDSYTNYNQKFKDRATLTVDKSTSTAYMELSSLRSEDTAVYYCTRYWRGNSFDYWGQGTLVTVSS VL: DIVMTQSPDSLALALGERATINCKSSQSIINSGNQKNYLTWYQQKPGQPPKLLIYWGGTRHSGVPDRFSGSGSGTDFTLTISSLQAEDVAVYYCQNGYYSPFTFGQGTKVEIK	bound well	still bound well	able to bind well	did not bind	able to bind well	none of the six antibodies bound	did not undergo significant endocytosis	able to bind	not able to bind
18.2-A3: recombinant monoclonal CLDN18.2 antibody, VH SEQ ID NO: 21, VL SEQ ID NO: 26 (antibody, V domains shown, 18.2-A3 VH; 18.2-A3 VL) VH: EVQLVQSGAEVKKPGASVKVSCKASGYTFTSYWLNWVRQAPGQGLEWIGSMYPSDSYTNYNQKFKDRATLTVDKSTSTAYMELSSLRSEDTAVYYCTRFSRGNSFDYWGQGTLVTVSS VL: DIVMTQSPDSLTVALGERATINCKSSQSLLESGNQKNYLTWYQQKPGQPPKLLIYWSWAKNSGVPDRFSGSGSGTDFTLTISSLQAEDVAVYYCQNAYAFPFTFGQGTKVEIK	bound well	still bound well	able to bind well	did not bind	able to bind well	none of the six antibodies bound	did not undergo significant endocytosis	–	–
18.2-A5: recombinant monoclonal CLDN18.2 antibody, VH SEQ ID NO: 41, VL SEQ ID NO: 46 (antibody, V domains shown, 18.2-A5 VH; 18.2-A5 VL) VH: EVQLVQSGAEVKKPGASVKVSCKASGYTFTSSWVGWVRQAPGQGLEWIGNSYPSDSYTNYNQKFKDRATLTVDKSTSTAYMELSSLRSEDTAVYYCTRLGRGNSFDYWGQGTLVTVSS VL: DIVMTQSPDSLTVALGERATINCKSSQSLIHSGNQKNYLTWYQQKPGQPPKLLIYWGLSKNSGVPDRFSGSGSGTDFTLTISSLQAEDVAVYYCQNSIYYPFTFGQGTKVEIK	–	–	able to bind well	did not bind	able to bind well	none of the six antibodies bound	–	–	–
